From PMC9712102, “Direct activation of a bacterial innate immune system by a viral capsid protein” (Nature, 2022)

Biological target: T1, CapRel^SJ46, purified full-length (Salmonella temperate phage SJ46)
T1 construct: also called purified CapRel^SJ46; source: E. coli BL21 (DE3), pET24d-His10-SUMO-capRel^SJ46, purified (nickel resin, SEC, tag removed with Ulp1); not shown: His10, N-terminal, cleaved; SUMO, N-terminal, cleaved
Test: ITC; CapRel^SJ46 (or variant) at 150 μM in the syringe titrated into Gp57 (or variant) at 10 μM in the cell; 25 °C; 50 mM HEPES pH 7.5, 500 mM KCl, 500 mM NaCl, 150 mM imidazole, 10 mM MgCl2, 1 mM TCEP, 0.002% mellitic acid
Conditions: both partners purified

B1: Gp57, purified (natural protein)
chain: MAKKYDELDATIVANHLQIQGVKTDASDMGIWTAQELHKIRSTAYEKEYPAGSALRVFPVTNELSDTDKTFEYQTFDKVGYAKIIADYTDDLPTVDALMTSEFGKVFRLGNAFLISIDEIKAGQRTGKSLSTRKANAAQNAHDQLINFLVFKGSKPHKIVSVFDHPNLTKIVSKGWMSQDGNTKFPDVASDELEAAIETIEEVTKGQHRATNILIPPSMRKVLTVRMENTTESYLEYFQKQNGGITIDSIAELEDIDGKGTKGCLVYEKDPMNMSIEIPEAFNMLPAQPKDLHFKVPCTSKCTGLTIYRPFTMVLITGLKKSV
Kd: 350 nM
